From paper PMC4533223, “Structures of CD6 and Its Ligand CD166 Give Insight into Their Interaction” (Structure(London, England:1993), 2015) come the findings set out here.

In data set [1] the target is T1, human CD6 domains 1-3 plus stalk fused to rat CD4 domains 3 and 4 (CD6 d1-3S, wild type, S351) (human, UniProt P30203 18-402, biotin on the tag (immobilisation to streptavidin, Figure S1)).
T1 construct: also called CD6-CD4d3+4; CD6 WT; not shown: rat CD4 domains 3 and 4 (CD4d3+4), C-terminal, kept
T1 sequence (looked up): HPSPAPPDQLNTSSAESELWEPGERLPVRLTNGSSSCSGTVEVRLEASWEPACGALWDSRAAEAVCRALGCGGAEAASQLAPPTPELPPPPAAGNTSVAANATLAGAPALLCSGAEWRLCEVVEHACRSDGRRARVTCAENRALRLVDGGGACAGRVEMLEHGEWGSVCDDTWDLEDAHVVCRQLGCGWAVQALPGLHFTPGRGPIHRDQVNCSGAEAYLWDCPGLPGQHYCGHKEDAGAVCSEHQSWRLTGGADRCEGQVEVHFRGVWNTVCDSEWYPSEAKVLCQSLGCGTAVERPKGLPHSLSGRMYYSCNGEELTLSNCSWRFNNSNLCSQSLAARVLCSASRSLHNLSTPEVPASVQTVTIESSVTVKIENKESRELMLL
As to the kind of experiment: SPR; BIAcore 3000; CD6-CD4d3+4 chimeras (d1-3S, d2-3S, d3S) immobilised via the biotin tag to streptavidin, rat CD4 d3+4 in the control flow cell; soluble CD166 VVC injected, top 1.0 μM plus nine two-fold dilutions; 37 °C, HBS-EP, 20 μl/min; equilibrium binding, Langmuir 1:1 fit. The conditions noted are these: one partner purified. For orientation: SPR reads the build-up and loss of mass on a sensor chip optically.

The target of data set [2] is T2, human CD6-CD4d3+4 chimera, mutant S351A (human, UniProt P30203 18-402, S351A).
T2 construct: human CD6 extracellular region with the membrane proximal stalk, as Dm2; also called CD6 S351A; source: mutant made with a Q5 SDM kit; not shown: rat CD4 domains 3 and 4 (CD4d3+4), C-terminal, kept
T2 sequence (looked up): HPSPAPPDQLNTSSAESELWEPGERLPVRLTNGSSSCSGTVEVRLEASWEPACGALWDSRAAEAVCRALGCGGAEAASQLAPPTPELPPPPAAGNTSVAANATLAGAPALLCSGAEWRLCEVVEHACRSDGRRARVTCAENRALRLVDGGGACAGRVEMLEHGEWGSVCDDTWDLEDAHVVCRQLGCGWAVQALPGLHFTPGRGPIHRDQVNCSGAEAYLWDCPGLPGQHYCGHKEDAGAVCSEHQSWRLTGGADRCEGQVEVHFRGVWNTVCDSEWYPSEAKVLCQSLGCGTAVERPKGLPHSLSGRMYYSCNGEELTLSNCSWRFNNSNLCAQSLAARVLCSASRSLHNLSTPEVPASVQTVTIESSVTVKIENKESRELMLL
Put plainly: SPR; BIAcore 3000; CD6 S351, S351A and S351N (CD4d3+4 chimeras) immobilised via OX68 mAb, rat CD4 d3+4 in the control flow cell; soluble CD166 VVC injected, top 2.5 μM plus nine two-fold dilutions; 25 °C, HBS-EP, 20 μl/min; KD from equilibrium binding (Langmuir 1:1), koff from one phase exponential decay. Conditions: one partner purified.

Data set [3] addresses T1, human CD6 domains 1-3 plus stalk fused …. Described as above. Conditions: one partner purified.
Data set [4] concerns the target T3, human CD6-CD4d3+4 chimera, SNP variant S351N (human, UniProt P30203 18-402, S351N, N-linked glycosylation at N351 (shown by mass spectrometry)).
T3 construct: human CD6 extracellular region with the membrane proximal stalk, as Dm2; S351N is a SNP found in 10% of the genomes analyzed; The 293T cells and the purification with OX68-Sepharose are told for the sample used in the glycosylation mass spectrometry; also called CD6 S351N; CD6-CD4d3+4 S351N; source: transiently expressed in 293T cells; not shown: rat CD4 domains 3 and 4 (CD4d3+4), C-terminal, kept
T3 sequence (looked up): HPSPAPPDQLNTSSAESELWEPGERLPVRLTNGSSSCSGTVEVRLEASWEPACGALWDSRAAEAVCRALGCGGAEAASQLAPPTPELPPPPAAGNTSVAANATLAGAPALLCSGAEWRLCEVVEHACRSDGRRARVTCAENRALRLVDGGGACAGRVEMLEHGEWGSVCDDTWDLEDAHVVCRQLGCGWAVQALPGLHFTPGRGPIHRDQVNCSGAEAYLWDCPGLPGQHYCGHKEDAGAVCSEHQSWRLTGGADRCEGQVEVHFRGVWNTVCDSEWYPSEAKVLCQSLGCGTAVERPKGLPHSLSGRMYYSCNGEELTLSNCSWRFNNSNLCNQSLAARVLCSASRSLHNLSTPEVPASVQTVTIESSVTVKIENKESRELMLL
The data set is described as above. Conditions: one partner purified.

The target of data set [5] is T1, human CD6 domains 1-3 plus stalk fused …. Put plainly: SPR; BIAcore 3000; CD6-CD4d3+4 chimeras (d1-3S, d2-3S, d3S) immobilised via the biotin tag to streptavidin, rat CD4 d3+4 in the control flow cell; soluble CD166 VVC injected, top 1.0 μM plus nine two-fold dilutions; 37 °C, HBS-EP, 20 μl/min; equilibrium binding, Langmuir 1:1 fit. The conditions noted are these: one partner purified. The source holds these as a separate data set.

In data set [6] the target is human CD6 domain 3 plus stalk fused to rat CD4 domains 3 and 4 (CD6 d3S) (human) (UniProt P30203). The description is as above.
The target in data set [7] is human CD6 domains 2-3 plus stalk fused to rat CD4 domains 3 and 4 (CD6 d2-3S) (human) (UniProt P30203). The data set is described as above.
The target in data set [8] is T2, human CD6-CD4d3+4 chimera, mutant S351A. Put plainly: SPR; BIAcore 3000; CD6 S351, S351A and S351N (CD4d3+4 chimeras) immobilised via OX68 mAb, rat CD4 d3+4 in the control flow cell; soluble CD166 VVC injected, top 2.5 μM plus nine two-fold dilutions; 25 °C, HBS-EP, 20 μl/min; KD from equilibrium binding (Langmuir 1:1), koff from one phase exponential decay. Conditions: one partner purified. The source holds these as a separate data set.

Data set [9] deals with T1, human CD6 domains 1-3 plus stalk fused …. The description is as above. The conditions noted are these: one partner purified. The source holds these as a separate data set.
In data set [10] the target is T3, human CD6-CD4d3+4 chimera, SNP variant …. The data set is described as above. The conditions noted are these: one partner purified. This is another data set of the same source.
Data set [11] addresses human CD6 domain 3 plus stalk fused to rat CD4 domains 3 and 4 (CD6 d3S) (human) (UniProt P30203). As to the kind of experiment: SPR; BIAcore 3000; CD6-CD4d3+4 chimeras (d1-3S, d2-3S, d3S) immobilised via the biotin tag to streptavidin, rat CD4 d3+4 in the control flow cell; soluble CD166 VVC injected, top 1.0 μM plus nine two-fold dilutions; 37 °C, HBS-EP, 20 μl/min; equilibrium binding, Langmuir 1:1 fit. This is another data set of the same source.

Data set [12] has as its target human CD6 domains 2-3 plus stalk fused to rat CD4 domains 3 and 4 (CD6 d2-3S) (human) (UniProt P30203). Described as above. The source holds these as a separate data set.
Data set [13] deals with the molecule itself. Put plainly: SEC-MALS; Superdex200 10/30 in 50 mM Tris.HCl, pH 7.5, 150 mM NaCl, 0.4 ml/min; CD6 alone 39 µM, CD166 VVC alone 28 µM, equimolar mixture 27 µM each; samples diluted approximately 10-fold on the column.
Data set [14] concerns the molecule itself. As to the kind of experiment: native MS; each protein alone at 20 μM; buffer exchanged into 250 mM ammonium acetate pH 7.6; dimer to monomers.
Data set [15] deals with T4, human CD6 S351N (SNP variant) (human, UniProt P30203 18-668, S351N, N-linked glycan at N351; N28, N49, N229 glycosylated, N339 appears partially glycosylated).
T4 construct: human CD6 with the SNP S351N, found in 10% of the genomes analyzed; made by mutagenesis; Probably the same chimeric, streptavidin-immobilized format as m3 (surmised); construct in the supplement
T4 sequence (looked up): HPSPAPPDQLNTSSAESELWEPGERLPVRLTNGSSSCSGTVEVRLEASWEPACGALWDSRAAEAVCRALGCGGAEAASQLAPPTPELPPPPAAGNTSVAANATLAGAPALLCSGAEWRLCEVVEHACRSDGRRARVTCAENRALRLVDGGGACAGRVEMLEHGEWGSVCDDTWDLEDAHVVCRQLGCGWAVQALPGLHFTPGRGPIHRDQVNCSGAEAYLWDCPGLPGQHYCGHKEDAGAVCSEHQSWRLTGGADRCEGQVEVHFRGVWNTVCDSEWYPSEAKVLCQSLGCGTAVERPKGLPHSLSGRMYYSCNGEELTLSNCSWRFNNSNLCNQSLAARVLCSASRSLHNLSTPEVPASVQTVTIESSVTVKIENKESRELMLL
As to the kind of experiment: SPR; soluble CD166 VVC over streptavidin-immobilized chimeric CD6 forms and variants. Conditions: both partners purified.

Like-named read-outs stand apart in the source and are kept apart here.

As usually defined, the Kd is the constant that tells how readily two partners part at equilibrium. In general, koff refers to a measure of how fast the partners let go of each other. Usually stoichiometry N stands for the number of molecules, sites or subunits per partner or assembly.

B1: soluble recombinant human CD166 VVC (IgSF domains 1-3, two V-like domains and one C-like domain), His-tagged (domain or fragment, UniProt Q13740 28-335, looked up)
chain: WYTVNSAYGDTIIIPCRLDVPQNLMFGKWKYEKPDGSPVFIAFRSSTKKSVQYDDVPEYKDRLNLSENYTLSISNARISDEKRFVCMLVTEDNVFEAPTIVKVFKQPSKPEIVSKALFLETEQLKKLGDCISEDSYPDGNITWYRNGKVLHPLEGAVVIIFKKEMDPVTQLYTMTSTLEYKTTKADIQMPFTCSVTYYGPSGQKTIHSEQAVFDIYYPTEQVTIQVLPPKNAIKEGDNITLKCLGNGNPPPEEFLFYLPGQPEGIRSSNTYTLTDVRRNATGDYKCSLIDKKSMIASTAITVHYLDLS
notes: signal peptide in the construct; human CD166 (ALCAM) residues 1-335 with the native leader; Deglycosylated with EndoHf only for crystallization; also called ALCAM; source: purified (NiNTA, Superdex200)
For B1, the Kd was 90 nM in data set [1]; 83 nM in [2]; 120 nM in data set [3]; 599 nM in [4]; 77 nM in data set [5]; 100 nM in data set [6]. For the same molecule, the Kd in data set [7] was found to be 90 nM; in data set [8], 60 nM; in data set [9], 90 nM; in [10] it was 500 nM; in data set [11] it was 86 nM; in data set [12], 81 nM. Further, the koff in [2] was 0.049 s⁻¹; in [3] it was 0.072 s⁻¹; in data set [4], 0.337 s⁻¹; in [8], 0.05 s⁻¹; in data set [9] it was 0.07 s⁻¹; in [10] it was 0.4 s⁻¹. Moreover, in [13], the “stoichiometry N” value amounted to 2.

B2: human CD166 IgSF domains 1-3 (CD166 VVC), His-tagged (residues 1-335) (domain or fragment, UniProt Q13740 28-335, looked up)
chain: WYTVNSAYGDTIIIPCRLDVPQNLMFGKWKYEKPDGSPVFIAFRSSTKKSVQYDDVPEYKDRLNLSENYTLSISNARISDEKRFVCMLVTEDNVFEAPTIVKVFKQPSKPEIVSKALFLETEQLKKLGDCISEDSYPDGNITWYRNGKVLHPLEGAVVIIFKKEMDPVTQLYTMTSTLEYKTTKADIQMPFTCSVTYYGPSGQKTIHSEQAVFDIYYPTEQVTIQVLPPKNAIKEGDNITLKCLGNGNPPPEEFLFYLPGQPEGIRSSNTYTLTDVRRNATGDYKCSLIDKKSMIASTAITVHYLDLS
modifications: N-linked glycans (endoglycosidase H sensitive; heterogeneity in mass caused by glycosylation)
notes: signal peptide in the construct; In the crystal (PDB 5a2f) only domains 1 and 2 were resolved; the third domain was probably cleaved off before crystal growth; protein deglycosylated with EndoHf for crystallization; also called ALCAM; source: purified (NiNTA, Superdex200)
With B2, in data set [14], the “stoichiometry N” value turned out to be 2. In addition, the “fold weaker affinity than for CD6 S351” value in data set [15] was found to be 10 fold.

B3: human CD6 SRCR domains 1-3, His-tagged (residues 1-364) (domain or fragment, UniProt P30203 18-364, looked up)
chain: HPSPAPPDQLNTSSAESELWEPGERLPVRLTNGSSSCSGTVEVRLEASWEPACGALWDSRAAEAVCRALGCGGAEAASQLAPPTPELPPPPAAGNTSVAANATLAGAPALLCSGAEWRLCEVVEHACRSDGRRARVTCAENRALRLVDGGGACAGRVEMLEHGEWGSVCDDTWDLEDAHVVCRQLGCGWAVQALPGLHFTPGRGPIHRDQVNCSGAEAYLWDCPGLPGQHYCGHKEDAGAVCSEHQSWRLTGGADRCEGQVEVHFRGVWNTVCDSEWYPSEAKVLCQSLGCGTAVERPKGLPHSLSGRMYYSCNGEELTLSNCSWRFNNSNLCSQSLAARVLCSASR
modifications: N-linked glycans (endoglycosidase H sensitive; heterogeneity in mass caused by glycosylation; GlcNAc seen at N229 in the crystal)
notes: signal peptide in the construct; Deglycosylated with EndoHf only for crystallization; source: purified (NiNTA, Superdex200)
For the molecule B3, the “stoichiometry N” value in [14] came out at 2.
